These results are taken from publication PMC12865133, “Macrocyclic Molecular Glues for the 14‐3‐3/ChREBP Interaction: Affinity and Cooperativity in an Inverse Relationship” (Angewandte Chemie (International Ed. in English), 2025).

Several values for one entry are separate records, joined by “and”; a condition that tells them apart may be missing. Identical values can stand only once. [ ]: non-standard residue; d: D form. pS = N[C@@H](COP(=O)(O)O)C(=O)O

Holding throughout (conditions): both partners purified
In experiment [1] the target is T1, full-length human 14-3-3β protein with a N-terminal His6 tag (human, UniProt P31946 1-246).
T1 construct: 14-3-3 protein beta/alpha, human, full length; Treated as a dimer in the thermodynamic model (Pp = 14-3-3 dimer); also called Pp (14-3-3 dimer); source: E. coli BL21(DE3), pPROEX HTb, purified (Ni-NTA, dialysis)
T1 sequence (looked up): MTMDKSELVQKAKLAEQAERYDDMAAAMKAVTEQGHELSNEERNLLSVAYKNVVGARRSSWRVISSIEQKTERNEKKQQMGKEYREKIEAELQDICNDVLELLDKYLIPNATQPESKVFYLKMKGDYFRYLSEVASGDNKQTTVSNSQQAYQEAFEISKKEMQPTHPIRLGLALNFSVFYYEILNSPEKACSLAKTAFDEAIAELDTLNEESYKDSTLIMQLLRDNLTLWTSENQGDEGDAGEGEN
Briefly: fluorescence polarisation; 2D fluorescence anisotropy titration, replicate 2: 14-3-3β titrated (from 250 µM) to FITC-labeled macrocycle or pepD with varying ChREBP peptide starting at 10 μM; KD I (binary affinity of the macrocycle for a site of the 14-3-3 dimer) fitted by the thermodynamic cooperativity model with KD II fixed at 1.5 µM; 10 mM HEPES pH 7.4, 150 mM NaCl, 0.1% Tween20, 0.1% BSA; room temperature.

Experiment [2] has as its target T1, full-length human 14-3-3β protein with …. Briefly: fluorescence polarisation; 2D fluorescence anisotropy titration, replicate 1: 14-3-3β titrated (from 250 µM) to FITC-labeled macrocycle or pepD with varying ChREBP peptide starting at 20 μM; KD I (binary affinity of the macrocycle for a site of the 14-3-3 dimer) fitted by the thermodynamic cooperativity model with KD II fixed at 1.5 µM; 10 mM HEPES pH 7.4, 150 mM NaCl, 0.1% Tween20, 0.1% BSA; room temperature. In general terms: Polarisation of emitted light reports the rotation of a fluorescent probe.

Another experiment deals with T2, 14-3-3γ (UniProt P61981 1-247).
T2 construct: 14-3-3 protein, gamma isoform; also called 14-3-3 protein
T2 sequence (looked up): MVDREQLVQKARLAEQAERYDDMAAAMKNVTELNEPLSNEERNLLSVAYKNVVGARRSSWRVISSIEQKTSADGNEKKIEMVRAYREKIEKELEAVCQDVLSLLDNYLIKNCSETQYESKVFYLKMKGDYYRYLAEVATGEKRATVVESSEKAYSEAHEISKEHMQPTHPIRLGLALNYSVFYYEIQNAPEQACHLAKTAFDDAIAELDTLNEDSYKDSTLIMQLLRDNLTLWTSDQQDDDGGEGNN
Briefly: fluorescence polarisation; fluorescence anisotropy; 14-3-3γ titrated to FITC-labeled macrocycles F1-F4 and pepD (10 nM); mean ± SD, n = 3.

Another experiment concerns the target T3, 14-3-3β (UniProt P31946 1-246).
T3 construct: 14-3-3 protein, beta isoform; also called 14-3-3 protein
T3 sequence (looked up): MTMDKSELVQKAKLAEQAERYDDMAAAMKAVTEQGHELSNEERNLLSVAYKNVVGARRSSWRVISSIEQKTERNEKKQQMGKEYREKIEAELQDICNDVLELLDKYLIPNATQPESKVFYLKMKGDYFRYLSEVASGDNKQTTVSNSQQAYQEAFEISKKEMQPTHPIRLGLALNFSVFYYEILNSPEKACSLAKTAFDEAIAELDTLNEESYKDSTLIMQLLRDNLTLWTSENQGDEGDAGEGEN
The experiment in a line: fluorescence polarisation; two-dimensional fluorescence anisotropy; 14-3-3β titrated to FITC-labeled F1, F2, F3, F4 or pepD (10 nM) with varying concentrations of ChREBP peptide; fitted to a thermodynamic cooperativity model with KD II fixed at 1.5 µM; n = 2.

Experiment [3] addresses T4, full-length human 14-3-3γ protein with a N-terminal His6 tag (human, UniProt P61981 1-247).
T4 construct: 14-3-3 protein gamma, human, full length; TEV cleavage of the His6 tag is told only for the 14-3-3σ ΔC construct; source: E. coli BL21(DE3), pPROEX HTb, purified (Ni-NTA, dialysis)
T4 sequence (looked up): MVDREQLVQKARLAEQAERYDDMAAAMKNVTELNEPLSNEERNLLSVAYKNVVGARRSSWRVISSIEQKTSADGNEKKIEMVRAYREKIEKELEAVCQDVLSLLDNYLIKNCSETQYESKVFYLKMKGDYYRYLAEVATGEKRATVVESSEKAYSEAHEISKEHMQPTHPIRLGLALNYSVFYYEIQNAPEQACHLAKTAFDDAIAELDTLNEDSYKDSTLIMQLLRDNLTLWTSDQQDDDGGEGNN
The experiment in a line: ITC; 200 μM macrocycle or pepD titrated to 20 μM 14-3-3γ; 25 mM HEPES pH 8.0, 100 mM NaCl, 10 mM MgCl2, 500 µM TCEP; 25 °C; fitted with SEDPHAT; mean ± SD, n=3. On the technique in general: Isothermal titration calorimetry measures the heat released or taken up as one component is titrated into another.

The target in experiment [4] is T5, recombinant 14-3-3γ-Twinstrep protein (human, UniProt P61981 1-247).
T5 construct: 14-3-3 protein gamma; The expression of the Twinstrep construct is not described; also called Twinstrep-tagged 14-3-3γ; source: recombinant
T5 sequence (looked up): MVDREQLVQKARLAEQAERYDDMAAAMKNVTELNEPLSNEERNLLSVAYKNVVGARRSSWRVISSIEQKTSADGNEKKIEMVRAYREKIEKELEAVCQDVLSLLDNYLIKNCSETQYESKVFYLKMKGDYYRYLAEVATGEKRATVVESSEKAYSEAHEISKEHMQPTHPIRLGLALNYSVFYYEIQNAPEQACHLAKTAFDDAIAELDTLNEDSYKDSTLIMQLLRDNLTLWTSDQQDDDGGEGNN
The experiment in a line: SPR; kinetic fit (1:1 model, global); Twinstrep-tagged 14-3-3γ captured on a Strep-Tactin XT chip (about 1000 RU), 2-fold dilutions of Ac-macrocycle or pepD injected; multi-cycle; 25 °C; 10 mM HEPES pH 7.4, 200 mM NaCl, 50 μM EDTA, 0.005% P20; two replicates and their average. A general note: Surface plasmon resonance follows binding to a sensor surface in real time, without labels.

Experiment [5] deals with T5, recombinant 14-3-3γ-Twinstrep protein. The experiment in a line: SPR; affinity fit (steady-state response against concentration, 1:1 model); Twinstrep-tagged 14-3-3γ captured on a Strep-Tactin XT chip, 2-fold dilutions of Ac-macrocycle or pepD injected; 25 °C; 10 mM HEPES pH 7.4, 200 mM NaCl, 50 μM EDTA, 0.005% P20; two replicates and their average.
Experiment [6] has as its target T1, full-length human 14-3-3β protein with …. Briefly: fluorescence polarisation; selectivity assay by fluorescence anisotropy: acetylated 14-3-3 client peptides titrated (from 100 μM, 2-fold) to 10 nM FITC-labeled macrocycle F2 or F4 bound to 14-3-3β (7 μM for 2, 2 μM for 4); 10 mM HEPES pH 7.4, 150 mM NaCl, 0.1% Tween20, 0.1% BSA; room temperature.

B1: fluorescently labeled macrocycle F1 (peptide)
chain: SFSXFKXK
modifications: not fully specified; phosphoserine; Phe(+1) triazole cyclised to the backbone amide nitrogen of Lys(+5) through a linker x = 1 (from propargyl alcohol); β-homoSer(+2); β-Ala(+3); Nph(+4); β-Ala and a lysine whose side chain carries fluorescein isothiocyanate (FITC) after Lys(+5)
As a reminder, the Kd is the constant that tells how readily two partners part at equilibrium. For the molecule B1, the Kd is 73000 nM in experiment [1] and 71000 nM in experiment [2].

B2: fluorescently labeled macrocycle F3 (peptide)
chain: SFSXFKXK
modifications: not fully specified; phosphoserine; Phe(+1) triazole cyclised to the backbone amide nitrogen of Lys(+5) through a linker x = 3 (from 4-pentyn-1-ol); β-homoSer(+2); β-Ala(+3); Nph(+4); β-Ala and a lysine whose side chain carries fluorescein isothiocyanate (FITC) after Lys(+5)
As to B2, the Kd in experiment [1] is 380 nM; in experiment [2], 630 nM.

B3: macrocycle F2 (peptide)
chain: SFSXFKXK
modifications: not fully specified; fluorescein isothiocyanate (FITC) on the side chain of the first lysine; β-alanine after it; phosphoserine; triazole from azido phenylalanine (replacing Nph(+1)) cyclised to the backbone amide nitrogen between Lys(+5) and Nph(+4), linker x = 2; β-homoSer(+2); β-Ala(+3); 4-nitrophenylalanine Nph(+4)
As for B3, in the experiment with 14-3-3γ, binding was put at a Kd of 5700 nM.

B4: macrocycle F1 (peptide)
chain: SFSXFKXK
modifications: not fully specified; fluorescein isothiocyanate (FITC) on the side chain of the first lysine; β-alanine after it; phosphoserine; triazole from azido phenylalanine (replacing Nph(+1)) cyclised to the backbone amide nitrogen between Lys(+5) and Nph(+4), linker x = 1; β-homoSer(+2); β-Ala(+3); 4-nitrophenylalanine Nph(+4)
Consider B4, for which the values for the Kd with 14-3-3γ and in the experiment with 14-3-3β were 57000 nM and 72000 ± 1400 nM, respectively.

B5: macrocycle 4 (peptide)
chain: SFSXFK
modifications: not fully specified; phosphoserine (position 0); phenylalanine(+1) with a triazole (from azido phenylalanine, replacing Nph(+1)) cyclised to the backbone amide nitrogen of Lys(+5) through an alkyl linker x = 4 (from 5-hexyn-1-ol); β-homoSer(+2); β-Ala(+3); 4-nitrophenylalanine Nph(+4); Ac- (Ac-macrocycles)
As for B5, the Kd in experiment [3] is 1050 nM; in experiment [4] it was 1140 nM and 1030 nM and 1100 nM; in experiment [5], 1180 nM and 1130 nM and 1200 nM.

B6: acetylated ChREBP peptide (peptide)
peptide: Ac-RDKIRLNNAIWRAWYIQYVKRRKSPV-NH2
notes: also called S (in the model); source: synthetic peptide, bought: GenScript Biotech Corp
With B6, in experiment [6], the binding result is given as “binds”.

B7: ERRγ client peptide (peptide)
peptide: Ac-KRRRK[pS]CQA-NH2
SMILES: CC(=O)N[C@@H](CCCCN)C(=O)N[C@@H](CCCNC(=N)N)C(=O)N[C@@H](CCCNC(=N)N)C(=O)N[C@@H](CCCNC(=N)N)C(=O)N[C@@H](CCCCN)C(=O)N[C@@H](COP(=O)(O)O)C(=O)N[C@@H](CS)C(=O)N[C@@H](CCC(N)=O)C(=O)N[C@@H](C)C(N)=O
notes: ERRγ (estrogen-related receptor gamma), 14-3-3 client peptide; source: synthetic peptide, bought: GenScript Biotech Corp
As for B7, in experiment [6], the binding result is reported as “binds”.

B8: NOTCH4 client peptide (peptide)
peptide: Ac-RPRTQ[pS]APHRRRPP-NH2
SMILES: CC(=O)N[C@@H](CCCNC(=N)N)C(=O)N1CCC[C@H]1C(=O)N[C@@H](CCCNC(=N)N)C(=O)N[C@H](C(=O)N[C@@H](CCC(N)=O)C(=O)N[C@@H](COP(=O)(O)O)C(=O)N[C@@H](C)C(=O)N1CCC[C@H]1C(=O)N[C@@H](Cc1c[nH]cn1)C(=O)N[C@@H](CCCNC(=N)N)C(=O)N[C@@H](CCCNC(=N)N)C(=O)N[C@@H](CCCNC(=N)N)C(=O)N1CCC[C@H]1C(=O)N1CCC[C@H]1C(N)=O)[C@@H](C)O
notes: NOTCH4, 14-3-3 client peptide; source: synthetic peptide, bought: GenScript Biotech Corp
On to B8, for which, in experiment [6], the binding result is “binds”.

B9: B-RAF client peptide (peptide)
peptide: Ac-RDRSS[pS]APNVH-NH2
SMILES: CC(=O)N[C@@H](CCCNC(=N)N)C(=O)N[C@@H](CC(=O)O)C(=O)N[C@@H](CCCNC(=N)N)C(=O)N[C@@H](CO)C(=O)N[C@@H](CO)C(=O)N[C@@H](COP(=O)(O)O)C(=O)N[C@@H](C)C(=O)N1CCC[C@H]1C(=O)N[C@@H](CC(N)=O)C(=O)N[C@H](C(=O)N[C@@H](Cc1c[nH]cn1)C(N)=O)C(C)C
notes: B-RAF, 14-3-3 client peptide; source: synthetic peptide, bought: GenScript Biotech Corp
For the molecule B9, the binding result in experiment [6] is “binds”.

B10: fluorescently labeled macrocycle F4 (peptide)
chain: SFSXFKXK
modifications: not fully specified; phosphoserine; Phe(+1) triazole cyclised to the backbone amide nitrogen of Lys(+5) through a linker x = 4 (from 5-hexyn-1-ol); β-homoSer(+2); β-Ala(+3); Nph(+4); β-Ala and a lysine whose side chain carries fluorescein isothiocyanate (FITC) after Lys(+5)
The molecule B10 gave a Kd in experiment [2] of 5000 nM.
